Measured values as given in patent publication US20160068860A1, “TRANSGENIC PLANTS” (CONSEJO SUPERIOR DE INVESTIGACIONES CIENTIFICAS (CSIC), priority 2013, published 2016).

What was measured:
PP2CA = assay: Yeast two hybrid (Y2H) growth assay with PP2CA; type: cell-based, Arabidopsis; conditions: absence of ABA; growth on medium lacking His and Ade
Method: We conducted error-prone PCR mutagenesis by amplification of the PYL4 open reading frame using the following primers: FPYL4Ncol, 5″-GCAGCAGCCATGGTTGCCG TTCACCGTCCTTCT and RPYL4EcoRIstop: […] TCT TCTTCTT, and the following conditions: 2 mM dGTP, dCTP and dTTP, 0.5 mM dATP, 12 mM MgCl2 and Taq polymerase. The PCR product was Ncol-EcoRI doubly digested, cloned into the pGBKT7 vector and DH10B cells were transformed by electroporation. Thus, we generated an allele library in E. coli of approximately 10,000 PYL4 mutant clones. […] The library was shuttled to yeast AH109 by co-transformation with pGAD7-PP2CA. Yeast transformants were pooled and clones able to grow in the absence of exogenous ABA in medium lacking histidine and adenine were selected. Yeast plasmids were extracted, sequenced and retransformed in yeast cells to recapitulate the phenotype. Protocols for yeast two hybrid assays were similar to those described previously (Saez et al., 2008).

[1] = test system: Arabidopsis thaliana plants; assay: Water-loss assays of OE lines; type: in vivo; conditions: for water loss under drought stress: greenhouse, leaves detached after 11-d without irrigation
Method: 2-3 weeks-old seedlings grown in MS plates were used for water-loss assays. Four seedlings per genotype with similar growth, three independent experiments, were submitted to the drying atmosphere of a flow laminar hood. Kinetic analysis of waterloss was performed and represented as the percentage of initial fresh weight loss at each scored time point. Stomatal aperture measurements were done in leaves of 5-week-old plants grown under greenhouse conditions using whole leaf imaging (Chitrakar and Melotto, 2010). Staining of whole leaves with propidium iodide was conducted and the aperture of 30-40 stomata (ratio width/length, two independent experiments) was measured using a Leica TCS-SL confocal microscope.
Plants grown under greenhouse conditions (10 individuals per experiment, three independent experiments) were grown under normal watering conditions for 15 days and then subjected to drought stress by stopping irrigation during 20 days. Next, watering was resumed and survival rate was calculated after 3 days by counting the percentage of plants that had more than four green leaves. Photographs were taken at the start of the experiment (day 0), after 16 and 19 days of drought, and 3 days after rewatering. Shoot-growth and water-loss were measured as follows. Quantification of shoot-growth was performed at 2, 5, 7 and 9 d after stopping irrigation (day 0) by measuring the maximum rosette radius of the plants. Water-loss measurements were done in two leaves from each plant that were detached 11 d after the start of the experiment, next weighted, incubated in de-mineralized water for 3 h and weighed again. The difference in weight was considered as water loss and related to the initial fresh weight (μl H2O/g FW).

[2] = test system: Arabidopsis thaliana plants; assay: Seedling establishment and early seedling growth of OE lines on ABA; type: in vivo; conditions: for ABA-mediated inhibition of seedling establishment: 0.25 or 0.5 μM ABA; for ABA-mediated inhibition of shoot growth (early seedling growth): 0.25-0.5 μM ABA
Description: PYL4 or PYL4 mutants were cloned into pCR8/GW/TOPO entry vector (Invitrogen) and recombined by LR reaction into the gateway compatible ALLIGATOR2 vector (Bensmihen et al., 2004). This construct drives expression of PYL4 under control of the 35S CaMV promoter and introduces a triple HA epitope at the N-terminus of the protein. Selection of transgenic lines is based on the visualization of GFP in seeds, whose expression is driven by the specific seed promoter At2S3. The ALLIGATOR2-35S:3HA-PYL4 or mutant constructs were transferred to Agrobacterium tumefaciens C58C1 (pGV2260) (Deblaere et al., 1985) by electroporation and used to transform Columbia wild type plants by the floral dip method. T1 transgenic seeds were selected based on GFP visualization and sowed in soil to obtain the T2 generation. At least three independent transgenic lines were generated for each construct. Homozygous T3 progeny was used for further studies and expression of HA-tagged protein in 21-d-old seedlings was verified by immunoblot analysis using anti-HA-peroxidase (Roche).
After surface sterilization of the seeds, stratification was conducted in the dark at 4° C. for 3 d. Approximately 100 seeds of each genotype were sowed on MS plates supplemented with different ABA concentrations per experiment. To score seed germination, radical emergence was analyzed at 72 h after sowing. Seedling establishment was scored as the percentage of seeds that developed green expanded cotyledons and the first pair of true leaves at 7-d.

[3] = test system: Barley plants (cv. Golden Promise); type: in vivo, Hordeum vulgare; conditions: for vegetative growth under non-stress conditions: in vivo; for drought tolerance compared to non-transformed Golden promise wt plants / fresh weight/leaf after drought / survival and vegetative growth after drought and rewatering / weight/plant after drought and rewatering: transgenic barley; for drought tolerance compared to non-transformed Golden promise wt plants: 12-d period of drought; for fresh weight/leaf after drought / survival and vegetative growth after drought and rewatering / weight/plant after drought and rewatering: compared to non-transformed plants
Description: Transgenic barley (cv. Golden Promise) expressing either Arabidopsis PYL4^A194T or PYL4^H82R V97A open reading frame driven by the Ubiquitin promoter from the pBract214 vector was generated via Agrobacterium-mediated transformation (Bartlett et al. 2008).
The nucleotide sequence encoding either PYL4^A194T or PYL4^H82R V97A open reading frame was recombined by LR reaction from pCR8/GW/TOPO entry vector into the Gateway compatible pBract214 destination vector. The sequence introduced in barley is the Arabidopsis open reading frame carrying the indicated mutations. Also, the second codon (of the sequence as shown in SEQ ID NO; 2) was modified to GTT to get a Ncol site to facilitate cloning).
Immature embryos were inoculated with Agrobacterium strain AGL1 containing the over-expression vector pBract214 into which the genes of interest had been cloned. pBract214 also contains the hygromycin resistance gene to allow selection of transgenic tissues and plants. Following co-cultivation for 3 days, immature embryos were transferred to selective callus induction medium containing hygromycin to allow the selection of transformed tissue and timentin to remove Agrobacterium. After a total of 6 weeks callus induction, callus were moved to a transition medium in low light and then 2 weeks later to regeneration medium under full light. Regenerated plants were transferred to rooting tubes when shoots reached 2-3 cm in length. Plants with strong roots in hygromycin containing medium were then established in soil and grown to maturity under controlled environment conditions in order to obtain T1 seed progeny.
Barley plants (cv. Golden Promise) were routinely grown under greenhouse conditions (40-50% relative humidity, 23-24° C.) in pots containing a 1:3 vermiculite-soil mixture. Pots were grouped in trays where water was maintained approximately 0.2-1 cm above the bottom of the tray. For drought (D) stress experiments, four-week-old plants were watered with tap water for 12-d (minus D, water maintained 0.2-1 cm above the bottom of the tray) or were submitted to drought for 12-d (plus D, water withdrawal). One flag leaf per plant (10 individual plants for each genetic background, minus and plus D treatment) was weighed in order to obtain its fresh weight and dried for 16 h at 70° C. and weighed again to obtain its dry weight. After the 12 day drought period, plants that had been submitted to drought were re-watered (RW, water 1 cm above the bottom of the tray for 2-d, then water withdrawal) and weight per plant (destructive measurement to obtain above ground biomass) was obtained after 5-d (plus D, plus RW). The results obtained are described in FIGS. 9, 10 and 11.

Molecule	interaction with PP2CA in Y2H assay (PP2CA)	water loss under drought stress [1]	ABA-mediated inhibition of seedling establishment [2]	vegetative growth under non-stress conditions [3]	drought tolerance compared to non-transformed Golden promise wt plants [3]	fresh weight/leaf after drought [3]	survival and vegetative growth after drought and rewatering [3]	weight/plant after drought and rewatering [3]	ABA-mediated inhibition of shoot growth (early seedling growth) [2]	water-loss kinetics ([1]; 15-d-old seedlings, drying atmosphere of a laminar flow hood)
PYL4: AtPYL4 wild type ABA receptor polypeptide (SEQ ID NO:3, At2g38310) [reference compound]	ABA-dependent manner	reduced water loss compared to non-transformed plants	enhanced ABA-mediated inhibition of seedling establishment compared to non-transformed plants	–	–	–	–	–	–	–
PYL4H82R V97A (AtPYL H82 and V97A) (receptor, also called PYL4H82R (found combined with V97A)) MLAVHRPSSAVSDGDSVQIPMMIASFQKRFPSLSRDSTAARFHTHEVGPNQCCSAVIQEISAPISTVWSVVRRFDNPQAYKRFLKSCSVIGGDGDNAGSLRQVHVVSGLPAASSTERLDILDDERHVISFSVVGGDHRLSNYRSVTTLHPSPISGTVVVESYVVDVPPGNTKEETCDFVDVIVRCNLQSLAKIAENTAAESKKKMSL	ABA-independent interaction with PP2CA	–	higher sensitivity to ABA-mediated inhibition of seedling establishment than PYL4 OE plants	did not impair vegetative growth	enhanced drought tolerance	higher fresh weight/leaf	enhanced survival and vegetative growth	higher weight/plant	higher sensitivity to ABA-mediated inhibition of shoot growth than PYL4 OE plants	–
PYL4A194T: AtPYL4 ABA receptor mutant polypeptide with A194T substitution (SEQ ID NO. 60; nucleic acid SEQ ID NO: 55); also over-expressed in plants (protein, listed as Arabidopsis thaliana) MLAVHRPSSAVSDGDSVQIPMMIASFQKRFPSLSRDSTAARFHTHEVGPNQCCSAVIQEISAPISTVWSVVRRFDNPQAYKHFLKSCSVIGGDGDNVGSLRQVHVVSGLPAASSTERLDILDDERHVISFSVVGGDHRLSNYRSVTTLHPSPISGTVVVESYVVDVPPGNTKEETCDFVDVIVRCNLQSLAKITENTAAESKKKMSL	enhanced the interaction of PYL4 and PP2CA in the absence of ABA	reduced water loss compared to non-transformed Col and PYL4 OE plants	higher sensitivity to ABA-mediated inhibition of seedling establishment than PYL4 OE plants	did not impair vegetative growth	enhanced drought tolerance	higher fresh weight/leaf	enhanced survival and vegetative growth	higher weight/plant	higher sensitivity to ABA-mediated inhibition of shoot growth than PYL4 OE plants	lost less water than non-transformed or PYL4 OE lines
